Target: A/New Caledonia/20/1999 (NC H1N1) recombinant hemagglutinin (HA) (Influenza A virus A/New …, UniProt Q6WG00, strain)
Assay: ELISA
Settings: both partners purified

B1: FI6 human IgG1 (antibody, V domains shown)
VH: QVQLVESGGGVVQPGRSLRLSCAASGFTFSTYAMHWVRQAPGKGLEWVAVISYDANYKYYADSVKGRFTISRDNSKNTLYLQMNSLRAEDTAVYYCAKDSQLRSLLYFEWLSQGYFDYWGQGTLVTVSS
VL: not shown
notes: also called native human IgG1; source: HEK-293, transfected (pTT5), purified from cell culture supernatant (MabSelect); copies: 2 + 2
**Q.** Does B1 bind?
**A.** binds
